The text below walks through data of publication PMC11425952, “Characterization of Mycobacterium smegmatis Glutaminase-Free Asparaginase (MSMEG_3173)” (ACS Omega, 2024).

Usually Km stands for the substrate concentration at which the rate is half of its maximum. Usually kcat stands for the maximal rate divided by the concentration of active sites.

The series concerns NC(=O)C[C@H](N)C(=O)O. The experiment in a line: purified protein. The series is classed as biochemical, Mycolicibacterium smegmatis. The following applies: 50 mM Tris-HCl pH 8.6, 37 °C (standard assay), 0.05-4.0 mM L-Asn.

For the substance “MsA (Mycobacterium smegmatis L-asparaginase, MSMEG_3173) (Mycolicibacterium smegmatis MC2 155)”, the Km amounted to 1403 ± 240 µM and the kcat stood at 708.1 ± 25.05 s⁻¹.
